Assay results taken from patent US20250009801A1 (Innovent, published 2025).

Key:
[1] = biological target: T1, human Claudin18.2-His (Acro, CL2-H5546) (human, UniProt P56856-2 1-261); assay: SPR (Biacore T200), Claudin18.2-His coupled on CM5 chip, antibody in the mobile phase (avidity)
T1 construct: Bought reagent, amine-coupled to a CM5 chip; also called recombinant human CLDN18.2 protein; not shown: His tag

[2] = biological target: HB37A6 PG Ab (P329G mutated HB37A6 antibody, human IgG1); assay: cell-based or functional assay
HB37A6 PG Ab (P329G mutated HB37A6 antibody, human IgG1), sequence (heavy, as listed by the source, chain 1 of 2): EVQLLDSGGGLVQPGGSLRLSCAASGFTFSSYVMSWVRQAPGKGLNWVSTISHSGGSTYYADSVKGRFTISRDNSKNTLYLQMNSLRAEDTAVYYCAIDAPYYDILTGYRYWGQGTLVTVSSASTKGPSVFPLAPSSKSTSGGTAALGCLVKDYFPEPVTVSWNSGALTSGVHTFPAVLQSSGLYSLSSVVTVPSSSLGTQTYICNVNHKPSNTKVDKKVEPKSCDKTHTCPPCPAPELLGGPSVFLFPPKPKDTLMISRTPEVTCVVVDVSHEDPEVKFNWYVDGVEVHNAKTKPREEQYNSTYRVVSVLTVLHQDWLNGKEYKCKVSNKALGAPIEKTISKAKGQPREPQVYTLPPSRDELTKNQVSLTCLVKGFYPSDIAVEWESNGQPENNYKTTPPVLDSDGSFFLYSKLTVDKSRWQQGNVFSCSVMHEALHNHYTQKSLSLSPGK
HB37A6 PG Ab (P329G mutated HB37A6 antibody, human IgG1), sequence (light, as listed by the source, chain 2 of 2): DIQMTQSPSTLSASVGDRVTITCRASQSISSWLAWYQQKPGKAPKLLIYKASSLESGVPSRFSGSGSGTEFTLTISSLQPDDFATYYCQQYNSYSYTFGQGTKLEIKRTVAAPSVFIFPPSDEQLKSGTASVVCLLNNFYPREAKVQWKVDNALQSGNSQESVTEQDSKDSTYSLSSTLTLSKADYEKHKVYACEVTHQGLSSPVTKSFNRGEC

Binder	Kd [1]	koff [1]	kon [1]	proliferation of CAR-T cells on plate-bound antibody (CellTiter-Glo), 2 days, against the WT antibody [2]	proliferation of CAR-T cells on plate-bound antibody (CellTiter-Glo), 3 days, against the WT antibody [2]
Hz3G3 PG Ab (antibody, human IgG1, kappa, V domains shown, also called G3 PG antibody; G3 antibody) VH: QVQLVQSGAEVKKPGASVKVSCKASGYSFTTYWMHWVRQAPGQGLEWMGLIDPSDSETRLNQKFKDRVTMTVDTSTSTVYMELSSLRSEDTAVYYCASNRWLLGWGQGTLVTVSS VL: DIVMTQSPDSLAVSLGERATINCKSSQSLLNSGNQKNYLTWYQQKPGQPPKLLIYWASTRESGVPDRFSGSGSGTDFTLTISSLQAEDVAVYYCQNDYSYPLTFGQGTKLEIKR	2.5 nM	0.00177 s⁻¹	709000 M⁻¹ s⁻¹		
Hz69H9 PG Ab (P329G mutated Hz69H9 antibody, human IgG1) (antibody, V domains shown, also called H9 PG antibody; P329G H9 antibody) VH: QVQLVQSGAEVKKPGSSVKVSCKASGYSFSSYNIHWVRQAPGQGLEWMGYIAPFQGDSRYNQKFKGRVTITADKSTSTAYMELSSLRSEDTAVYYCARLNRGNSLDYWGQGTLVTVSS VL: DIVMTQSPDSLAVSLGERATINCKSSQSLFNSGNQRNYLTWYQQKPGQPPKLLIYWASTRESGVPDRFSGSGSGTDFTLTISSLQAEDVAVYYCQNNYIYPLTFGGGTKVEIKR	< 0.00527 nM	< 1e-05 s⁻¹	1.9e+06 M⁻¹ s⁻¹		
HuR968B CAR on CAR-T cells (receptor) EVQLVESGGGLVQPGGSLRLSCAASGFTFSRYWMNWVRQAPGKGLEWVGEITPDSSTINYAPSLKGRFTISRDNAKNSLYLQMNSLRAEDTAVYYCARPYDYGAWFASWGQGTLVTVSSGGGGSGGGGSGGGGSGGGGSQAVVTQEPSLTVSPGGTVTLTCRSSTGAVTTSNYANWVQEKPDHLFTGLIGGTNKRAPGTPARFSGSLLGGKAALTLSGAQPEDEAEYYCALWYSNHWVFGGGTKLTVLGGGGSIYIWAPLAGTCGVLLLSLVITLYCKRGRKKLLYIFKQPFMRPVQTTQEEDGCSCRFPEEEEGGCELRVKFSRSADAPAYQQGQNQLYNELNLGRREEYDVLDKRRGRDPEMGGKPRRKNPQEGLYNELQKDKMAEAYSEIGMKGERRRGKGHDGLYQGLSTATKDTYDALHMQALPPR				~2 fold	~3.3 fold

Next, values leading:

Kd [1]	koff [1]	kon [1]	proliferation of CAR-T cells on plate-bound antibody (CellTiter-Glo), 2 days, against the WT antibody [2]	proliferation of CAR-T cells on plate-bound antibody (CellTiter-Glo), 3 days, against the WT antibody [2]	Binder
0.98 nM	0.00185 s⁻¹	1.89e+06 M⁻¹ s⁻¹			Hz69H9-1.2 PG Ab (antibody, human IgG1, kappa, V domains shown, Mutant of the parent Hz69H9 with point mutations in VH or VL; also called H9-1.2 PG antibody) VH: QVQLVQSGAEVKKPGSSVKVSCKASGYSFSSYNIHWVRQAPGQGLEWMGYIAPFQGDARYNQKFKGRVTITADKSTSTAYMELSSLRSEDTAVYYCARLNRGQSLDYWGQGTLVTVSS VL: DIVMTQSPDSLAVSLGERATINCKSSQSLFNAGNQRNYLTWYQQKPGQPPKLLIYWASTRESGVPDRFSGSGSGTDFTLTISSLQAEDVAVYYCQNNYIYPLTFGGGTKVEIKR
0.325 nM	0.000153 s⁻¹	471000 M⁻¹ s⁻¹			Hz69H9-SA PG Ab (antibody, human IgG1, kappa, V domains shown, Mutant of the parent Hz69H9 with point mutations in VH or VL; also called H9-SA PG antibody) VH: QVQLVQSGAEVKKPGSSVKVSCKASGYSFSSYNISWVRQAPGQGLEWMGYIAPFQGDARYNQKFKGRVTITADKSTSTAYMELSSLRSEDTAVYYCARLNRGNSLDYWGQGTLVTVSS VL: DIVMTQSPDSLAVSLGERATINCKSSQSLFNSGNQRNYLTWYQQKPGQPPKLLIYWASTRESGVPDRFSGSGSGTDFTLTISSLQAEDVAVYYCQNNYIYPLTFGGGTKVEIKR
